Measured values published in publication PMC6060420, “Persulfide Dioxygenase From Acidithiobacillus caldus: Variable Roles of Cysteine Residues and Hydrogen Bond Networks of the Active Site” (Frontiers in Microbiology, 2018).

Columns and labels:
[1] = target: T1, AcPDO (Acidithiobacillus caldus, UniProt A0A2P9DTT9); assay: MALDI-TOF MS of tryptic peptides; assay type: binding; settings: covalent; cysteine-GSH adducts at C87, C224, C137 after […] min with […] GSSH, pH […]
T1 construct: gene pdo

[2] = target: persulfide dioxygenase from Acidithiobacillus caldus C-SH12 (AcPDO) (Acidithiobacillus caldus C-SH12); assay: SEC; gel permeation chromatography, Superose 6 10/300 on an Äkta system, freshly prepared AcPDO (0.5 mg protein); standards cytochrome c, conalbumin, aldolase, catalase
[3] = target: persulfide dioxygenase from Acidithiobacillus caldus C-SH12 (AcPDO) (Acidithiobacillus caldus C-SH12); assay: native gel or EMSA; gel of urea-treated AcPDO (Supplementary Figure S6B), urea up to 8 M; 54-kDa dimer band
[4] = target: persulfide dioxygenase from Acidithiobacillus caldus C-SH12 (AcPDO) (Acidithiobacillus caldus C-SH12); assay: SEC; gel permeation chromatography, Superose 6 HR 10/30, previously frozen AcPDO, 2 M guanidinium chloride in 150 mM Tris/HCl pH 8, after 1 h at 25°C, 0.5 ml/min; tetramer to dimers
[5] = target: persulfide dioxygenase from Acidithiobacillus caldus C-SH12 (AcPDO) (Acidithiobacillus caldus C-SH12); assay: SDS-PAGE with Western blot; 10% acrylamide Tris-tricine SDS gel of purified AcPDO, detection with HRP-conjugated anti-Strep-tag antibody

T1 sequence (A0A2P9DTT9 1-235 limits assumed): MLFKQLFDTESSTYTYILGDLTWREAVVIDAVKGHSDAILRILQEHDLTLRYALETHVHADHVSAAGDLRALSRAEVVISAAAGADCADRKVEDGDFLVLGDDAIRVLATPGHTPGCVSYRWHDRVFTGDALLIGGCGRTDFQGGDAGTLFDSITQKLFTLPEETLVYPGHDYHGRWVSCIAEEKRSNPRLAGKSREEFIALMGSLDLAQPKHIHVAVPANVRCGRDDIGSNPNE

stoichiometry N [2] [subunits]	stoichiometry N [3]	stoichiometry N [4]	stoichiometry N [5]	Compound	MALDI-TOF MS of tryptic peptides [1]
				N[C@@H](CCC(=O)N[C@@H](CSS)C(=O)NCC(=O)O)C(=O)O [GSSH]	cysteine-GSH adducts were identified after the enzyme was incubated with GSSH
3.7	2	2	2	persulfide dioxygenase from Acidithiobacillus caldus C-SH12 (AcPDO) (enzyme)	
